Results reported in paper PMC11480844 (2024).
Positions count from the first letter of the chain named.

B1: H2-Kb / Ed21 (parent complex)
chain 1: AQSVTQPDARVTVSEGASLQLRCKYSYFGTPYLFWYVQYPRQGLQLLLKYYPGDPVVQGVNGFEAEFSKSNSSFHLRKASVHWSDWAVYFCAVSMSGGYKVVFGSGTRLLVSP
chain 2: DSGVVQSPRHIIKEKGGRSVLTCIPISGHSNVVWYQQTLGKELKFLIQHYEKVERDKGFLPSRFSVQQFDDYHSEMNMSALELEDSAMYFCASSPRQTDYTFGSGTRLLVI
chain 3: not shown
chain 4: IQKTPQIQVYSRHPPENGKPNILNCYVTQFHPPHIEIQMLKNGKKIPKVEMSDMSFSKDWSFYILAHTEFTPTETDTYACRVKHDSMAEPKTVYWDRDM
chain 5: SIINFEKL
B2: H2-Kb / Ed28 (parent complex)
chain 1: AQSVTQPDARVTVSEGASLQLRCKYSYFGTPYLFWYVQYPRQGLQLLLKYYPGDPVVQGVNGFEAEFSKSNSSFHLRKASVHWSDWAVYFCAVSPGSGGKLTLGAGTRLQVNL
chain 2: B1 chain 2 with Q97A, T98S
chain 3: not shown
chain 4: B1 chain 4
chain 5: SIINFEKL

Variants of: B1
Assay: % of reporter cells activated (NFAT-GFP), raw
Further: test concentration or dose not given here.

ratio to parent | Variant
0.0818 | chain 5 K7E
0.605 | chain 5 K7G
0.799 | chain 5 K7I
0.645 | chain 5 K7A
0.752 | chain 5 K7T
0.706 | chain 5 K7N
0.568 | chain 5 K7Q
0.785 | chain 5 K7L
0.997 | chain 5 K7H
0.418 | chain 5 K7M
0.788 | chain 5 K7V
0.976 | chain 5 L8Y
0.901 | chain 5 L8K
1.03 | chain 5 L8H
0.882 | chain 5 L8C
0.887 | chain 5 L8M
0.966 | chain 5 L8G
0.826 | chain 5 L8F
0.859 | chain 5 L8I
0.685 | chain 5 L8E
0.783 | chain 5 L8T
0.888 | chain 5 L8N

ratio to parent | Variant
0.686 | chain 5 L8V
0.329 | chain 5 E6L
0.964 | chain 5 E6D
0.593 | chain 5 E6M
0.884 | chain 5 E6N
0.59 | chain 5 E6H
0.641 | chain 5 E6S
0.366 | chain 5 E6Y
0.0269 | chain 5 E6V
0.918 | chain 5 E6Q
0.845 | chain 5 E6A
0.785 | chain 5 E6G
0.964 | chain 5 F5T
0.958 | chain 5 F5R
0.939 | chain 5 F5Q
0.886 | chain 5 F5S
0.952 | chain 5 F5K
0.947 | chain 5 F5H
0.873 | chain 5 F5G
1.05 | chain 5 F5A
0.891 | chain 5 F5I
0.866 | chain 5 F5W

ratio to parent | Variant
0.947 | chain 5 F5N
1.04 | chain 5 F5C
0.487 | chain 5 N4D
0.189 | chain 5 N4E
0.162 | chain 5 N4C
0.017 | chain 5 N4W
0.47 | chain 5 N4H
0.165 | chain 5 N4T
0.476 | chain 5 N4R
0.0275 | chain 5 N4F
0.389 | chain 5 N4I
0.566 | chain 5 N4K
0.618 | chain 5 N4L
0.0148 | chain 5 N4Y
0.271 | chain 5 N4S
0.498 | chain 5 N4A
0.902 | chain 5 I3Q
0.869 | chain 5 I3F
0.961 | chain 5 I3N
0.775 | chain 5 I3R
0.575 | chain 5 I3D
0.872 | chain 5 I3A

ratio to parent | Variant
0.901 | chain 5 I3S
0.99 | chain 5 I3M
0.636 | chain 5 I3G
0.916 | chain 5 I2R
0.975 | chain 5 I2P
1.02 | chain 5 I2L
0.906 | chain 5 I2K
0.904 | chain 5 I2Q
0.951 | chain 5 I2F
1 | chain 5 I2G
0.964 | chain 5 I2E
1.04 | chain 5 I2V
1.01 | chain 5 I2N
0.664 | chain 5 S1K
0.724 | chain 5 S1N
0.954 | chain 5 S1M
0.805 | chain 5 S1F
1.02 | chain 5 S1A
0.927 | chain 5 S1T

Variants of: B2
Assay: % of reporter cells activated (NFAT-GFP), raw

ratio to parent | Variant
0.74 | chain 5 F5P
0.773 | chain 5 F5W
0.81 | chain 5 F5A
0.844 | chain 5 F5L
0.483 | chain 5 F5E
0.564 | chain 5 F5G
0.56 | chain 5 F5K
1.13 | chain 5 F5C
0.875 | chain 5 F5Y
1 | chain 5 F5H
0.687 | chain 5 F5D
0.332 | chain 5 S1L
0.536 | chain 5 S1D
0.67 | chain 5 S1V
1.05 | chain 5 S1A
1 | chain 5 S1H
0.898 | chain 5 S1G
1.13 | chain 5 S1T
0.825 | chain 5 S1Y
1.08 | chain 5 I3V
0.632 | chain 5 I3A
1.14 | chain 5 I3S

ratio to parent | Variant
0.98 | chain 5 I3L
0.656 | chain 5 I3E
0.134 | chain 5 I3R
0.651 | chain 5 I3K
1.24 | chain 5 I3H
0.315 | chain 5 E6Q
0.0144 | chain 5 E6I
0.00894 | chain 5 E6W
0.039 | chain 5 E6S
0.014 | chain 5 E6L
0.238 | chain 5 E6A
0.0253 | chain 5 E6T
0.0175 | chain 5 E6C
0.0742 | chain 5 E6P
0.116 | chain 5 E6H
0.197 | chain 5 K7I
0.407 | chain 5 K7W
0.406 | chain 5 K7S
0.81 | chain 5 K7H
0.0363 | chain 5 K7C
0.48 | chain 5 K7Y
0.92 | chain 5 I2R

ratio to parent | Variant
0.898 | chain 5 I2N
1.25 | chain 5 I2A
1.3 | chain 5 I2D
1.14 | chain 5 I2L
1.15 | chain 5 I2C
0.602 | chain 5 L8Q
0.862 | chain 5 L8M
1.02 | chain 5 L8I
0.685 | chain 5 L8W
0.493 | chain 5 L8E
0.83 | chain 5 L8P
0.761 | chain 5 L8V
0.85 | chain 5 L8H
0.616 | chain 5 L8C
0.0544 | chain 5 N4E
0.0295 | chain 5 N4A
0.00909 | chain 5 N4V
0.035 | chain 5 N4D
0.504 | chain 5 N4K
0.00481 | chain 5 N4P
0.0197 | chain 5 N4C
